Results from patent US20080220446A1, “Method for Detecting and/or Removing Protein and/or Peptide Comprising a Cross-Beta Structure From an Aqueous Solution Comprising a Protein” (priority 2005, published 2008).

Assays:
LRP cl-IV = target: T1, LRP cl-IV (Homo sapiens, UniProt Q07954); assay: ELISA, LRP cluster IV binding to misfolded proteins; details: coated at 5 μg/ml
T1 construct: Cluster IV of the low-density lipoprotein (LDL) receptor-related protein (LRP cl-IV); made in house; host or cells: HEK293E/S
T1 sequence (Q07954 3332-3778): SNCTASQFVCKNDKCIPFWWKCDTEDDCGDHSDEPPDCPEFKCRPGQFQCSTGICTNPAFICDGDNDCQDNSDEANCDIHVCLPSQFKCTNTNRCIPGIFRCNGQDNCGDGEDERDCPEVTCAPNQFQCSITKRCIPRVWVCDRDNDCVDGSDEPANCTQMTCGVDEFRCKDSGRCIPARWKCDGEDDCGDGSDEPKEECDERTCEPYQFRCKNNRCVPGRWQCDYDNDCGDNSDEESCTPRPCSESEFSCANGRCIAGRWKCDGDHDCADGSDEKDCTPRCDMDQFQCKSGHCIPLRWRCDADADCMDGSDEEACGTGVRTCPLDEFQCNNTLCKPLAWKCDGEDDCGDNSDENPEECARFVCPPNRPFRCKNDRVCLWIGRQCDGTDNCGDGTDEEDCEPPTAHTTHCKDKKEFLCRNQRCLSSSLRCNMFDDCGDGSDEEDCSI
Experimental: Binding of LRP cl-IV to misfolded protein was determined using an enzyme linked immuno sorbent assay (ELISA) set-up. For this purpose 50 μl of a 5 μg/ml solution of BSA, BSA-AGE, Hb or Hb-AGE or coat buffer (for negative control) was coated for 1 h with motion. Proteins were diluted in coat buffer (100 mM NaHCO3 pH 9.6). The BSA and Hb controls were prepared freshly by dissolving proteins at 1 mg/ml in PBS by rolling for 10 minutes on a roller bank at room temperature, 10 minutes incubation at 37° C. followed by again 10 minutes incubation at the roller bank. Coat controls were performed with anti-glycated protein antibody 4B5, anti-albumin antibody or anti Hb antibody. After coating the plates were washed twice with PBS/0.1% Tween-20 (v/v) and blocked with 300 μl/well blocking reagent (Roche Diagnostics, Almere, The Netherlands) for 1 h at room temperature with motion. […] After five washes with wash buffer binding of antibody was assessed with a secondary antibody. […] After 5 washes with wash buffer, binding of anti-FLAG antibody and secondary antibodies was assessed with 100 μl/well TMB substrate (ready to use from Tebu Bio). […] After ˜2 minutes absorbance was read at 450 nm.

BiP = target: T2, BiP (Homo sapiens, UniProt P11021); assay: Affinity determination ELISA, BiP on coated (mis)folded proteins; format: binding; details: coated protein as labelled
T2 construct: made in house; host or cells: HEK293E
T2 sequence (P11021 19-654): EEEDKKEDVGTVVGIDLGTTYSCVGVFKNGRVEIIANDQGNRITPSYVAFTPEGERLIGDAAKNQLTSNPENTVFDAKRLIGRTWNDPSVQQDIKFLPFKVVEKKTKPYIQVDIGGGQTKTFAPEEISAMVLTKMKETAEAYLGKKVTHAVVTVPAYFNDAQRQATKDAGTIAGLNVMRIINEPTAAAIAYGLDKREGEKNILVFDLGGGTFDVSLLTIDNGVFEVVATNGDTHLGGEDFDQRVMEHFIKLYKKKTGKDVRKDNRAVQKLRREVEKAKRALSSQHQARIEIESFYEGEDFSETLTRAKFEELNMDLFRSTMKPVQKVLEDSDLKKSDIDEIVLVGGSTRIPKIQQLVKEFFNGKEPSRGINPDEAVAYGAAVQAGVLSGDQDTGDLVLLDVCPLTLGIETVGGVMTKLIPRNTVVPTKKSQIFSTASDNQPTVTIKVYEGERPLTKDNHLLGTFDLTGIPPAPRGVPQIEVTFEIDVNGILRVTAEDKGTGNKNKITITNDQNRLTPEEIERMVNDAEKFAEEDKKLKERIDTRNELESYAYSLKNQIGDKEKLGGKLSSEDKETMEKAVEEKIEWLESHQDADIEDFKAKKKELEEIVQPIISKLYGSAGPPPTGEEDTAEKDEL
Description: (§1) Synthetic genes of human BiP, human fibronectin finger 4,5 (Fn F4,5) fragment, and human tissue-type plasminogen activator finger EGF (tPA F-EGF) fragment were ordered from Geneart (Regensburg, Germany). These DNA constructs were digested using BamHI and NotI, and ligated into vector pABC674 (ABC-expression facility, Utrecht University, The Netherlands), which contains a carboxy-terminal FLAG-tag—His-tag. HEK293E cells were transiently transfected with these constructs using the polyethylene-imine method, and grown for 5-6 days.
(§2) Denatured proteins and their native controls BSA (Sigma, A7906), glycated BSA, Hb (Sigma, H7605), glycated Hb, ovalbumin (Sigma, A6741), heat-denatured misfolded ovalbumin, human γ-globulins (Sigma, G4386), heat-denatured misfolded γ-globulins, alkyl-γ-globulins, lysozyme (ICN Biochemicals, 100831) and alkyl-lysozyme were coated on ELISA plates (Greiner Microlon high-binding, 655092) in 50 mM NaHCO3-buffer pH 9.6. The plates were blocked using Blocking reagent (Roche 1112589). […] Bound protein is detected by the FLAG-tag using 1:3000 anti-FLAG-HRP (Sigma A-8592) in PBS-T, or by 1:1000 Ni-NTA-HRP (Qiagen 34530) in PBS-T. The HRP reaction Is performed using the TMB substrate (Biosource 4501103 or Tebu Bio 101TMB100-500), stopped using 10% H2SO4 and absorbance was measured at 450 nm.

platelets = assay: Platelet aggregation assay with BSA-AGE spiked plasma before and after depletion; format: cell-based, human; details: 512-fold diluted plasma spiked with 250 μg/ml, tenfold diluted
Experimental: Results are compared to platelet activating properties of the spiked plasma before depletion of BSA-AGE.
Freshly drawn human aspirin free blood was mixed gently with citrate buffer to avoid coagulation. Blood was spinned for 15′ at 150*g at 20° C. and supernatant was collected; platelet rich plasma (PRP) with an adjusted final platelet number of 200,000 platelets/μl. Platelets were kept at 37° C. for at least 30′, before use in the assays, to ensure that they were in the resting state. For the aggregometric assays, 270 μl platelet solution was added to a glass tube and prewarmed to 37° C. A stirring magnet was added and rotation was set to 900 rpm, and the apparatus (Whole-blood aggregometer, Chrono-log, Havertown, Pa., USA) was blanked. […] Aggregation was followed in time by measuring the absorbance of the solution, that will decrease in time upon platelet aggregation. As a positive control synthetic thrombin receptor activating peptide TRAP was used. Aggregation was recorded for 15′ and expressed as the percentage of the transmitted light (0-100%).

fibronectin F4,5 = target: T3, fibronectin F4,5 (Homo sapiens, UniProt P02751); assay: Affinity determination ELISA, fibronectin F4,5 on coated (mis)folded proteins; format: binding; details: coated protein as labelled
T3 construct: human fibronectin finger 4,5 (Fn F4,5) fragment; made in house; host or cells: HEK293E
T3 sequence (P02751 182-276 limits assumed): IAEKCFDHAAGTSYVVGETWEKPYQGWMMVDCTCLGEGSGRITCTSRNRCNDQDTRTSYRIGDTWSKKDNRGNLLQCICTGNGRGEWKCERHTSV
Description: as §1, §2

In the case of “albumin-AGE: advanced glycation end-product modified bovine serum albumin”, the “binding of LRP cl-IV” value (LRP cl-IV) is reported as “binds specifically”, the “binding of BiP” value (BiP) is reported as “high affinity” and the platelet aggregation (platelets) is reported as “Platelets readily aggregate”. For the same substance, the “affinity for fibronectin F4,5” value (fibronectin F4,5) was “High affinities”.
